# Laboratory results as given in patent US20150093336A1 (VIB VZW, published 2015).
# T1: Recombinant human MMR (R&D systems) (human, UniProt P22897 19-1383)
# T1 construct: Antigen of the PE-ELISA and the SPR; also called hMMR; recombinant hMMR
# T1 sequence: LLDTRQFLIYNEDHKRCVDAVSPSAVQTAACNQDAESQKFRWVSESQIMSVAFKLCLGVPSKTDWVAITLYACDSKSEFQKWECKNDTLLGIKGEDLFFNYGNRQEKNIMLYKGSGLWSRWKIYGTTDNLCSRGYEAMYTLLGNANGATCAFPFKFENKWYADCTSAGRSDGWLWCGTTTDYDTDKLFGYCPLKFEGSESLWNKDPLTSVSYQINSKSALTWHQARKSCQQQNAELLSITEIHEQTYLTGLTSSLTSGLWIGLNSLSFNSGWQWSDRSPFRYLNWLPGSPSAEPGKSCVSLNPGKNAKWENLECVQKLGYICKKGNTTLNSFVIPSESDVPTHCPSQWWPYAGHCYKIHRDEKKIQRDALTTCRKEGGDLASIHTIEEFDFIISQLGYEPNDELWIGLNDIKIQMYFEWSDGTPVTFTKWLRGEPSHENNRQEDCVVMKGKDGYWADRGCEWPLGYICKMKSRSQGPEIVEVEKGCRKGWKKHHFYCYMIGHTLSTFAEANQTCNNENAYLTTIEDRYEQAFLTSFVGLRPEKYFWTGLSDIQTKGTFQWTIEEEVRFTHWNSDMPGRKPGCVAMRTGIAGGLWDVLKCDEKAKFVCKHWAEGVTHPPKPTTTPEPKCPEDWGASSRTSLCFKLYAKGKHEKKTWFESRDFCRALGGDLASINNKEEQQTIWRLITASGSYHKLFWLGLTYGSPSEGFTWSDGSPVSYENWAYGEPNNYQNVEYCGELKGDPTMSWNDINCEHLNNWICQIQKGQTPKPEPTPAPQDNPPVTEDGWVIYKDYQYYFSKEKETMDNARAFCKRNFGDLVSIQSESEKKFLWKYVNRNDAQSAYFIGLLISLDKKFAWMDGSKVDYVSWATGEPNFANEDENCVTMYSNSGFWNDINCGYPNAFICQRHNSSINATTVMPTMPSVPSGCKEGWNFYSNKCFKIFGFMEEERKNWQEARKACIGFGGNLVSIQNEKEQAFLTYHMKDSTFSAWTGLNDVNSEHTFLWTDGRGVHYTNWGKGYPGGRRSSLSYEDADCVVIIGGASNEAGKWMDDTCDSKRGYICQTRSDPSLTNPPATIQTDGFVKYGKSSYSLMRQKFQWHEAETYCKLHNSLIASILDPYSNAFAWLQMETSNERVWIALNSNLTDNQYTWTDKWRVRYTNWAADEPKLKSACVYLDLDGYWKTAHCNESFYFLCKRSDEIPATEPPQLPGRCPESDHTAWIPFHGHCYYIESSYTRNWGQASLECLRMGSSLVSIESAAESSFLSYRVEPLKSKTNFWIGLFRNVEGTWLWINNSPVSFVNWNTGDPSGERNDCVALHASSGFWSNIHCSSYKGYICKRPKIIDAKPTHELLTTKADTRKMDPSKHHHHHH
# T2: Recombinant mouse MMR (R&D systems) (mouse, UniProt Q61830 20-1388)
# T2 construct: Antigen of the PE-ELISA and the SPR; also called mMMR; recombinant mMMR
# T2 sequence: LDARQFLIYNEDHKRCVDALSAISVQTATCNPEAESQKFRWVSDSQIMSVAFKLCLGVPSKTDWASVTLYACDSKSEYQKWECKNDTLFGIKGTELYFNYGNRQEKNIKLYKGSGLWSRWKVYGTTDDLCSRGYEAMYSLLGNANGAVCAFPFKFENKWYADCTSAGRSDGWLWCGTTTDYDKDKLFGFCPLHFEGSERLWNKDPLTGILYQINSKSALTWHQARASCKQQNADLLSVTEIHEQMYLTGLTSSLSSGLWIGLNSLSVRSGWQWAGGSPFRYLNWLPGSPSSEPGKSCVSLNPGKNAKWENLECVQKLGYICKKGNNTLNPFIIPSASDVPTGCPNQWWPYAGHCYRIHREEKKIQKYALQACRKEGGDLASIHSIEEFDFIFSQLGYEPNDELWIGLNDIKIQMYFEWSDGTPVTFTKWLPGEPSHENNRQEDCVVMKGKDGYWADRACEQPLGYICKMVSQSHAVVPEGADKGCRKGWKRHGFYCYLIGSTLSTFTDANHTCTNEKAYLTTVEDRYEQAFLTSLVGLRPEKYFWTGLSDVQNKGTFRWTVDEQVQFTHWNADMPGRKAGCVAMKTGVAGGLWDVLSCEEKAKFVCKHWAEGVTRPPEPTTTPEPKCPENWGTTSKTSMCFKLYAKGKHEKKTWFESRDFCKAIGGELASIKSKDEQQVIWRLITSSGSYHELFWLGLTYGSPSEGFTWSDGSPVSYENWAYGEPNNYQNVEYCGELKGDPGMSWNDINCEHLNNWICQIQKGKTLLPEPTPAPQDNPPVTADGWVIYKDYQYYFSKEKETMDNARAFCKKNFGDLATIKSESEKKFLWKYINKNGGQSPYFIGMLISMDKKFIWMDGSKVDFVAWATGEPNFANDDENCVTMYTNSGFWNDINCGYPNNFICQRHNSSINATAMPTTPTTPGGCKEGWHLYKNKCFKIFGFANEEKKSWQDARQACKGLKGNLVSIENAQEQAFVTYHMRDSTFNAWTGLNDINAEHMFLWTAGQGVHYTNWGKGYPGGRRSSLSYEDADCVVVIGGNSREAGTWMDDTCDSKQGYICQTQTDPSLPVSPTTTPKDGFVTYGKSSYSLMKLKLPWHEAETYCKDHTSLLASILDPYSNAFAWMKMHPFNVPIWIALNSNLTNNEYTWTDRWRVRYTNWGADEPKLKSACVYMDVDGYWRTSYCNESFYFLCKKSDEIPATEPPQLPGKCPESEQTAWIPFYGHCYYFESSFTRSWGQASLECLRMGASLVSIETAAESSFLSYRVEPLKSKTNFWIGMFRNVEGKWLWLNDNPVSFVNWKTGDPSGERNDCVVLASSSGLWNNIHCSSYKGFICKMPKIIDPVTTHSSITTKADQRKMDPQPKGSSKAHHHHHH
# Columns and labels:
# [1] = target: T1, Recombinant human MMR (R&D systems); assay: SPR, BIAcore T100; human MMR on CM5 chip, sdAb as analyte
# Description: (§1) Affinity analysis was performed using a BIAcore™ T100 (GE Healthcare) with HEPES-buffered saline running buffer (10 mM HEPES with 0.15 M NaCl, 3.4 mM EDTA and 0.005% surfactant P20 at pH 7.4). MRR was immobilized on a CM5 chip in acetate buffer 50 mM (pH 5.0), resulting in 2100 RU MMR coated on the chip. A second channel on the same chip was activated/deactivated in a similar way and served as a negative control. The MMR sdAbs were used as analytes in eleven different concentrations, ranging from 1 to 2000 nM, at a flow rate of […]. Glycine-HCl 50 mM (pH 2.0) was used for elution. The kinetic and equilibrium parameters (kd, ka and KD) values were calculated from the combined sensogram of all concentrations using BIAcore™ T100 evaluation software 2.02 (GE Healthcare).
# (§2) The binding characteristics and affinity of selected Nbs towards the recombinant hMMR and recombinant mMMR antigen was examined in further detail using surface plasmon resonance. A combined sensogram was recorded for each Nb (example for NbhmMMRm3.49 in FIG. 5) and the kinetic and equilibrium parameters (kd, ka and KD) values were calculated (Table 4 and Table 5). Most but not all results on binding to mouse or human rMMR obtained via this SPR analysis are in agreement with the results obtained by PE-ELISA.
# [2] = target: T2, Recombinant mouse MMR (R&D systems); assay: SPR, BIAcore T100; mouse MMR on CM5 chip, sdAb as analyte
# Description: as §1, §2
Binder,Kd [1],koff [1],kon [1],Kd [2],koff [2],kon [2],binding result [2]
"NbhMMRm10.19 (VHH, Produced from pMECS with C-terminal HA and 6xHis tag) VHH: QVQLQESGGGLVQPGGSLKLSCAASGSIFSIKTMGWYRQAPGKQRELVAAITSGGSTNYADSVKGRFTISRDNAKNTVYLQMNSLKPEDTAVYYCNADGVVAWDQPYDNYWGQGTQVTVSS",50 nM,0.031 s⁻¹,750000 M⁻¹ s⁻¹,250 nM,0.21 s⁻¹,840000 M⁻¹ s⁻¹,
"NbhmMMRm14.4 (VHH, Produced from pMECS with C-terminal HA and 6xHis tag) VHH: QVQLQESGGGLVQAGDSLRLSCAASGRTFSINYMGWYRQAPGKQRELVAAITSGSGSTNYADSVKGRFTISRDNAKNTMYLQMNSLKPEDTAVYYCNADMDSSLSGGYVDVWGQGTQVTVSS",10 nM,0.0014 s⁻¹,140000 M⁻¹ s⁻¹,68 nM,0.0023 s⁻¹,33000 M⁻¹ s⁻¹,
"NbhMMRm11.5 (VHH, Produced from pMECS with C-terminal HA and 6xHis tag) VHH: QVQLQESGGGLVQPGGSLMLSCAASGNIFTINRMGWYRQAPGKQRELVAAITSGGNTNYADSVKGRFTISRDNAKNTVYLQMNSLKPEDTAVYYCNAAIVTMTSPYSDYWGQGTQVTVSS",55 nM,0.022 s⁻¹,400000 M⁻¹ s⁻¹,120 nM,0.019 s⁻¹,150000 M⁻¹ s⁻¹,
"NbhMMRm2.15 (VHH, Produced from pMECS with C-terminal HA and 6xHis tag) VHH: QVQLQESGGGLVQPGESLRLSCKLSGFTLDYYDIGWFRQAPGKEREGVSCISSIGGSANYADSVKGRFTISRDNVKNTVYLQMNSLKPEDTAIYYCAAEAQTPYNDGDCTRASYDYWGQGIQVTVSS",8.6 nM,0.0013 s⁻¹,150000 M⁻¹ s⁻¹,,,,no binding (tested: analyte 1 to 2000 nM)
"NbhMMRm1.33 (VHH, Produced from pMECS in E. coli WK6 with C-terminal HA and 6xHis tag; also called NbMMRm1.33) VHH: QVQLQESGGGLVQPGGSLRLSCAASGFTLDNYTVAWFRQAPGKEREGVSCISSSGGSTNYADSVKGRFTISRDNSKKSVYLQMNSLKPEDTAIYTCAAERAPPYYSGYYFFDSTCVAASYDYWGQGTQVTVSS",7.7 nM,0.0015 s⁻¹,200000 M⁻¹ s⁻¹,,,,no binding (tested: analyte 1 to 2000 nM)

# Now from value to binder, other results behind:
Kd [1],koff [1],kon [1],Kd [2],koff [2],kon [2],Binder,binding result [2]
420 nM,0.0066 s⁻¹,16000 M⁻¹ s⁻¹,39 nM,0.0042 s⁻¹,110000 M⁻¹ s⁻¹,"NbhmMMRm10.79 (VHH, Produced from pMECS with C-terminal HA and 6xHis tag) VHH: QVQLQESGGGLVQPGGSLKLSCAASGSIFSIKTMGWYRQAPGKQRELVAAVSSGGSTNYADSVKGRFTISRDNAKNAVYLQMNSLKPEDTAVYYCNADGVVAWDQPYDNYWGQGTQVTVSS",
13 nM,0.0012 s⁻¹,95000 M⁻¹ s⁻¹,74 nM,0.0021 s⁻¹,29000 M⁻¹ s⁻¹,"NbhmMMRm14.93 (VHH, Produced from pMECS with C-terminal HA and 6xHis tag) VHH: QVQLQESGGGLVQAGDSLRLSCAASGRTFSINYMGWYRQAPGKQRELVAAITSGSGSTNYADSVKGRFTISRDNAKKTMYLQMNSLKPEDTAVYYCNADMDSSLSGGYVDVWGQGTQVTVSS",
1700 nM,0.01 s⁻¹,6000 M⁻¹ s⁻¹,8500 nM,0.032 s⁻¹,3700 M⁻¹ s⁻¹,"NbhmMMRm19.52 (VHH, Produced from pMECS with C-terminal HA and 6xHis tag) VHH: QVQLQESGGGLVQAGGSLRLSCLASGDTFSNYVMAWFRQAPGKEREIVAAIRLSGARYVPDSVKGRFTISRDNAKNAMYLQMTSLKPEDTARYYCAAGHTWGQYAYWGQGTQVTVSS",
21 nM,0.0014 s⁻¹,66000 M⁻¹ s⁻¹,,,,"NbhMMRm16.95 (VHH, Produced from pMECS with C-terminal HA and 6xHis tag) VHH: QVQLQESGGGLVQPGGSLGLSCAASGRIASISAMGWYRQAPGKQRELVAAITGSGRTNYADSVKGRFTISRDNAKNTVYLQMNSLKPEDTAVYYCNLLMVDYGLGLGTDYWGQGTQVTVSS",no binding (tested: analyte 1 to 2000 nM)
8.2 nM,0.0012 s⁻¹,150000 M⁻¹ s⁻¹,,,,"NbhMMRm12.6 (VHH, Produced from pMECS with C-terminal HA and 6xHis tag) VHH: QVQLQESGGGLVQPGGSLRLSCVVSGSFLSINHMGWYRQVSGEQRELVAAITSGGSTNYADSVKGRFTISRDSAKNTVYLQMNSLKPEDTAVYYCNADALTMLPPFDFWGQGTQVTVSS",no binding (tested: analyte 1 to 2000 nM)
260 nM,0.13 s⁻¹,510000 M⁻¹ s⁻¹,1.3 nM,0.002 s⁻¹,1.6e+06 M⁻¹ s⁻¹,"NbhmMMRm20.52 (VHH, Produced from pMECS with C-terminal HA and 6xHis tag) VHH: QVQLQESGGGLVQAGGSLRLSCAASGRIFSAYAMGWFRQAPGKEREFVAAISRSGDSTDYADSVKGRFTISRDSAKNMVYLQMNSLKPEDTALYHCAARTVSAPPSAAWGYGYWGQGTQVTVSS",
